The text below walks through data of PMC12309606.

One test addresses M33-64 TCR tetramer. Put plainly: flow cytometry, TCR tetramer staining on C1R.MR1 mutant cells. The following applies: 1 μM 5-OP-RU for 3 h; stained 30 min at room temperature; parent: est. 6400; read off a plot. In general terms: Flow cytometry measures light scatter and fluorescence of single cells or particles in a stream.
Test [1] has as its target MAV36 TCR Ser49β alanine mutant on HEK293T cells (human). Put plainly: flow cytometry on cells; PE-labeled MR1–5-OP-RU tetramer (0.5 μg/ml, nonsaturating) staining of HEK293T cells transiently expressing MAV36 TCR or alanine mutants with CD3, 15 min at room temperature; gates normalised for TCR level by anti-Vβ3.
The target of test [2] is MAV36 TCR Gln99β alanine mutant on HEK293T cells (human). The description is as above.
Test [3] addresses MR1 on C1R.MR1 cells pulsed with 5-OP-RU (UniProt Q95460). Put plainly: flow cytometry, TCR tetramer staining on C1R.MR1 cells. To be noted: 5-OP-RU (10 µM), pulsed for 5 h.
Test [4] addresses MR1 on C1R.MR1 cells pulsed with Ac-6-FP (UniProt Q95460). Described as above. The following applies: Ac-6-FP (10 µM), pulsed for 5 h.
The target of test [5] is MR1 on untreated C1R.MR1 cells (UniProt Q95460). Described as above. The following applies: No Ligand.
Test [6] addresses Biotinylated C-terminal cysteine-tagged MR1–5-OP-RU (SPR) (human) (UniProt Q95460). Put plainly: SPR. Background: In SPR one partner is held on a chip, and binding of the other changes the refractive index at the surface.

Regarding “MR1 on C1R.MR1 cells pulsed with 5-OP-RU (from UniProt Q95460) E158A”, in the test with M33-64 TCR tetramer, the response amounted to 2800 MFI.

Turning to “PE-labeled MR1–5-OP-RU tetramer (from UniProt Q95460 23-341; P61769 21-119) (complex)”, the reduction of tetramer staining against the wildtype TCR in test [1] and in test [2] was 50% throughout.

Take “MR1 on C1R.MR1 cells pulsed with 5-OP-RU (from UniProt Q95460) R79A”: the response in the test with M33-64 TCR tetramer turned out to be 6600 MFI.

On to “MR1 on C1R.MR1 cells pulsed with 5-OP-RU (from UniProt Q95460) V75A”, for which the response in the test with M33-64 TCR tetramer was determined as 6400 MFI.

For “MR1 on C1R.MR1 cells pulsed with 5-OP-RU (from UniProt Q95460) N146A”, in the test with M33-64 TCR tetramer, the response is 4000 MFI.

Turning to M33-64 TCR tetramer Tyr95αPhe, the response came to 140000 MFI in test [3], 20900 MFI in test [4] and 171 MFI in test [5].

Turning to “MR1 on C1R.MR1 cells pulsed with 5-OP-RU (from UniProt Q95460) Q141A”, the response with M33-64 TCR tetramer came out at 5400 MFI.

For “MR1 on C1R.MR1 cells pulsed with 5-OP-RU (from UniProt Q95460) M72A”, the response in the test with M33-64 TCR tetramer turned out to be 5900 MFI.

For “MR1 on C1R.MR1 cells pulsed with 5-OP-RU (from UniProt Q95460) R167A”, in the test with M33-64 TCR tetramer, the response came out at 5700 MFI.

In the case of “MR1 on C1R.MR1 cells pulsed with 5-OP-RU (from UniProt Q95460) N155A”, in the test with M33-64 TCR tetramer, the response was found to be 1600 MFI.

As to “MR1 on C1R.MR1 cells pulsed with 5-OP-RU (from UniProt Q95460) L65A”, the response with M33-64 TCR tetramer was 1300 MFI.

Consider “MR1 on C1R.MR1 cells pulsed with 5-OP-RU (from UniProt Q95460) D57A”, for which the response with M33-64 TCR tetramer turned out to be 6100 MFI.

Take “MR1 on C1R.MR1 cells pulsed with 5-OP-RU (from UniProt Q95460) T138A”: in the test with M33-64 TCR tetramer, the response came out at 5500 MFI.

As usually defined, the Kd is the constant that tells how readily two partners part at equilibrium. A low value points to a tighter complex. In the case of A-F7 TCR (TRAV1-2–TRBV6-1), soluble, the Kd in test [6] came out at 2700 nM.

As for “MR1 on C1R.MR1 cells pulsed with 5-OP-RU (from UniProt Q95460) H148A”, in the test with M33-64 TCR tetramer, the response was 4600 MFI.

Regarding “MR1 on C1R.MR1 cells pulsed with 5-OP-RU (from UniProt Q95460) L151A”, in the test with M33-64 TCR tetramer, the response is 7000 MFI.

As for M33-64 TCR tetramer Tyr95αAla, the response in test [3] was 61300 MFI; in test [4] it was 166 MFI; in test [5], 162 MFI.

Regarding “MR1 on C1R.MR1 cells pulsed with 5-OP-RU (from UniProt Q95460) R61A”, the response with M33-64 TCR tetramer is 5000 MFI.
